Source: patent publication US20260078196A1 (TJ BIOPHARMA SHANGHAI, published 2026)
Like-named read-outs stand apart in the source and are kept apart here.

Columns and labels:
[1] = target: T1, huMUC16, AA13789-14451; experiment: binding ELISA on huMUC16 AA13789-14451
T1 construct: also called MUC16 Antigen (human MUC16 AA13789-14451)
T1 chain: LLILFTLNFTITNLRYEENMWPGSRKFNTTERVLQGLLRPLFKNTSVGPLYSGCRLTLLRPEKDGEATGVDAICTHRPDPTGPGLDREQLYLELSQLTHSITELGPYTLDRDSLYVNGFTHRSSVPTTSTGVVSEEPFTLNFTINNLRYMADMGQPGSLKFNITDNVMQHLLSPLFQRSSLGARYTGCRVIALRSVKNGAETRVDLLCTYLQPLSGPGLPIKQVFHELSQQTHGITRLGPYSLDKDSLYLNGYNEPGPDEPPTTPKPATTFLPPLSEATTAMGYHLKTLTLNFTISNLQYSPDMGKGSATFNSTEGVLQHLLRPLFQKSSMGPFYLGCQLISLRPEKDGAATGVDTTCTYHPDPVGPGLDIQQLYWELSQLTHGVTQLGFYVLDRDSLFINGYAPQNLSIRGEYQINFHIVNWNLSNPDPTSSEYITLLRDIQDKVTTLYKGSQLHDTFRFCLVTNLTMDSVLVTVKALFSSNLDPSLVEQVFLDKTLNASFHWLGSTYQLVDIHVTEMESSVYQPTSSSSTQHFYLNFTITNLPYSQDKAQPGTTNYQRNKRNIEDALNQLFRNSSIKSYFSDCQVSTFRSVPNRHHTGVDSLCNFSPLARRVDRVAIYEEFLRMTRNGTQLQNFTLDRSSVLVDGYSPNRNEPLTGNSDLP

[2] = target: T2, human MUC16 on cells (human, UniProt Q8WXI7 1-14507); experiment: flow cytometry (GMFI) on OVCAR3 cells, nM is the unit of the x axis Log10[Ab] (nM)
T2 construct: whole, on cells; also called huMUC16; MUC16 on OVCAR3 and SNU216 cells

[3] = target: T2, human MUC16 on cells; experiment: flow cytometry (GMFI) on OVCAR3 cells; same value as in FIG. 11A, nM is the unit of the x axis
[4] = target: T3, huMUC16, AA14198-14507; experiment: binding ELISA on huMUC16 AA14198-14507
T3 chain: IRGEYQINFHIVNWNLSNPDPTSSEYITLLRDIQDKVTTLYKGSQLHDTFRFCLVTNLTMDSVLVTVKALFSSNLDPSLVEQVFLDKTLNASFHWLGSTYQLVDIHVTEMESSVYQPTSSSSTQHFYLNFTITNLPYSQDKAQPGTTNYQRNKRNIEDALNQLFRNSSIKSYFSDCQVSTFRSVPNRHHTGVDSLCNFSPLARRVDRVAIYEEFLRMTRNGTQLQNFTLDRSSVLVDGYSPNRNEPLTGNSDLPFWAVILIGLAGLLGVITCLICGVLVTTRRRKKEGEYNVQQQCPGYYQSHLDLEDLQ

[5] = target: T2, human MUC16 on cells; experiment: flow cytometry (MFI GeoMean) on OVCAR3 cells, nM is the unit of the x axis Log10[Ab] (nM)
[6] = target: T2, human MUC16 on cells; experiment: flow cytometry (MFI GeoMean) on SNU216 cells, nM is the unit of the x axis Log10[Ab] (nM)
[7] = target: T4, HEK293-MUC16 (13810-14507) (human, UniProt Q8WXI7 13810-14507); experiment: flow cytometry (MFI GeoMean) on HEK293-MUC16 (13810-14507) cells, nM is the unit of the x axis Log10[Ab] (nM)
T4 construct: range 13810-14507; also called MUC16 overexpressed HEK293 cells
T4 sequence: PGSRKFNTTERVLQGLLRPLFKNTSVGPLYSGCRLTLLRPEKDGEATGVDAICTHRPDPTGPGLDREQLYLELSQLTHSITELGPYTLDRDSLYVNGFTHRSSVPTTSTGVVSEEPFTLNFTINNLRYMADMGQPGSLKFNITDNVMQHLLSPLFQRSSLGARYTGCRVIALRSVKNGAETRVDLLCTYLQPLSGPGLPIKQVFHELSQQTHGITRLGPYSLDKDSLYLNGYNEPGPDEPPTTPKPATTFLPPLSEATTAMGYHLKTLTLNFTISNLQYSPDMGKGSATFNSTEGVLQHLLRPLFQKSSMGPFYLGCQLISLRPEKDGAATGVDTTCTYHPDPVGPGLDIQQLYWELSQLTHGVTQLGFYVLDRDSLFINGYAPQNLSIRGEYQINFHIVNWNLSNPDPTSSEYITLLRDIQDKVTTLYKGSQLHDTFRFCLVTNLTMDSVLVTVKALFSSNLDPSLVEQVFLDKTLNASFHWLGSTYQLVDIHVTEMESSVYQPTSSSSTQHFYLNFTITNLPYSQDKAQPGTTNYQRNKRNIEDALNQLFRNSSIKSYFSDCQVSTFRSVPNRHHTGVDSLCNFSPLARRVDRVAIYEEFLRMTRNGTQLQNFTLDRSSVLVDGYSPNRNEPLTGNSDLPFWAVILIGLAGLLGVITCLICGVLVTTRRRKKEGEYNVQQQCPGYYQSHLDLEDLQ

[8] = target: T5, ROR1 antigen (UniProt Q01973 30-406, limits assumed); experiment: SPR, binding to ROR1
T5 construct: Soluble antigen of the Octet binning and of the SPR assay

[9] = target: T5, ROR1 antigen; experiment: SPR on ROR1
[10] = target: T6, ROR1 on cells (UniProt Q01973 30-937); experiment: flow cytometry (gMFI) on A549 cells
T6 construct: whole, on cells; also called ROR1 endogenous expressed tumor cell A549; ROR1-positive tumor cell lines

[11] = target: T6, ROR1 on cells; experiment: flow cytometry (gMFI) on MDA-MB-231 cells
[12] = target: T5, ROR1 antigen; experiment: SPR on ROR1; remark: listed apart in the source
[13] = target: T6, ROR1 on cells; experiment: flow cytometry (gMFI) on A549 cells; remark: listed apart in the source
[14] = target: T5, ROR1 antigen; experiment: SPR on ROR1; remark: listed apart in the source
[15] = target: T7, human CLDN6 on cells (human, UniProt P56747 1-220); experiment: flow cytometry (GMFI) on OV90 cells
T7 construct: CHO-K1 cells stably expressing human CLDN6, and OVCAR3 / OV90 cells with endogenous CLDN6; also called CHO-K1-CLDN6; CLDN6 on OVCAR3 and OV90 cells
T7 sequence: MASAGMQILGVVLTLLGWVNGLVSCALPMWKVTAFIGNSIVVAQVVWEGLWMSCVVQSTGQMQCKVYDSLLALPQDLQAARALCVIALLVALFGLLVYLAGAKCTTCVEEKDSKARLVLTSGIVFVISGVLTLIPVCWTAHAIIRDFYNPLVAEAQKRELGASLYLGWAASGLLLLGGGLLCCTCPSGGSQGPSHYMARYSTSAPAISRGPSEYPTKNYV

[16] = target: T7, human CLDN6 on cells; experiment: flow cytometry (GMFI) on OVCAR3 cells
[17] = target: T7, human CLDN6 on cells; experiment: flow cytometry (GMFI) on CHO-K1-CLDN6 cells

B1: M16-1 (antibody, human IgG1, kappa, N297A, V domains shown)
VH: QVQLVESGGGLVKPGGSLRLSCAASGFTFSNYYMSWVRQAPGKGLEWISYISGRGSTIFYADSVKGRITISRDNAKNSLFLQMNSLRAEDTAVYFCVKDRGGYSPYWGQGTLVTVSS
VL: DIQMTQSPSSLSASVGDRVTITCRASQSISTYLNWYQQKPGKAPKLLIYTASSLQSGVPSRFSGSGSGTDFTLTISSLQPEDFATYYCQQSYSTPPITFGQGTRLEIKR
notes: also called benchmarker antibody M16-1
**Q.** What does the source list for B1?
**A.** binding result [1]: binds; EC50 [2]: 0.192 nM; EC50 [3]: 0.192 nM

B2: M16-2 (antibody, human IgG1, kappa, N297A, V domains shown)
VH: EVQLVESGGGLEQPGRSLRLSCTASGFAFGDHTMSWVRQAPGKGLEWVGFIRSRAYGGTTEYAASVKGRFTISRDDSKSIAYLQMDSLKTEDTAVYYCTSGGYDSSLHYYYYYHGMDVWGRGTTVTVSS
VL: not shown
notes: Benchmark anti-MUC16 antibody; also called benchmarker antibody M16-2
**Q.** Which results are given for B2?
**A.** binding result [1]: binds; binding result [4]: no binding (tested: 100 nM); EC50 [2]: 0.257 nM; EC50 [5]: 0.274 nM; EC50 [6]: 0.152 nM; EC50 [3]: 0.257 nM; EC50 [7]: 0.423 nM

B3: 4B-BiR1(Humanized) or 4B-hBiR1 (bispecific antibody, human IgG1, kappa)
heavy: not shown
chain: DIVMTQTPLSLSVTPGQPASISCKSSQSLLHSNGKTYLNWYLQKPGQSPQLLIYLVSKLESGVPDRFSGSGSGTDFTLKISRVEAEDVGVYYCLQATYFPYTFGQGTKLEIKGGGGSGGGGSGGGGSQVQLVQSGAEVKKPGASVKVSCKASGYTFTTYVMHWVRQAPGQGLEWMGYINPYNGGIRYNEKFKGRVTMTRDTSTSTVYMELSSLRSEDTAVYYCARRERGVYYGMDEWGQGTLVTVSSAAEPKSSDKTHTCPPCPAPELLGGPSVFLFPPKPKDTLMISRTPEVTCVVVDVSHEDPEVKFNWYVDGVEVHNAKTKPREEQYNSTYRVVSVLTVLHQDWLNGKEYKCKVSNKALPAPIEKTISKAKGQPREPQVCTLPPSREEMTKNQVSLSCAVKGFYPSDIAVEWESNGQPENNYKTTPPVLDSDGSFFLVSKLTVDKSRWQQGNVFSCSVMHEALHNHYTQKSLSLSPGKGGGGSGGGGSGGGGSQVQLQESGGGLVQPGGSLRLSCAASGYTYSSNCMGWFRQAPGKGLEGVAVICTGGGSPSYADSVKGRFTISRDNAKNTLYLQMNSLRAEDTAVYYCAADLLRAGTPLSSYEFNYWGQGTLVTVSS
light: DIQMTQSPSSLSASVGDRVTITCRASQDIYSYLSWFQQKPGKAPKTLIYRANRLVDAVPSRFSGSGSGQDYTLTISSLQPEDFATYYCLQYDEFPYTFGQGTKLEIKRTVAAPSVFIFPPSDEQLKSGTASVVCLLNNFYPREAKVQWKVDNALQSGNSQESVTEQDSKDSTYSLSSTLTLSKADYEKHKVYACEVTHQGLSSPVTKSFNRGEC
notes: Humanized bi-paratopic ROR1 x 4-1BB antibody: h3C5 IgG half with VHH plus h8F2 scFv-Fc-VHH; also called 4-hiBiR1
**Q.** What does the source list for B3?
**A.** Kd [8]: 12.1 nM; koff [9]: 0.00114 s⁻¹; kon [9]: 93600 M⁻¹ s⁻¹; EC50 (read off the curve) [10]: ~0.1 nM; EC50 (read off the curve) [11]: ~0.06 nM

B4: 4B-3C5 (humanized) or 4B-h3C5 (bispecific antibody, human IgG1, kappa)
heavy: not shown
light: B3 light
notes: Humanized ROR1 x 4-1BB BsAb; also called humanized 3C5 IgG x 4-1BB VHH
**Q.** Which results are given for B4?
**A.** Kd [8]: 79.3 nM; koff [12]: 0.00821 s⁻¹; kon [12]: 104000 M⁻¹ s⁻¹; EC50 (read off the curve) [10]: ~0.03 nM; EC50 (read off the curve) [11]: ~0.03 nM

B5: humanized 8F2 anti-ROR1 mAb (antibody, V domains shown)
VH: QVQLVQSGAEVKKPGASVKVSCKASGYTFTTYVMHWVRQAPGQGLEWMGYINPYNGGIRYNEKFKGRVTMTRDTSTSTVYMELSSLRSEDTAVYYCARRERGVYYGMDEWGQGTLVTVSS
VL: DIVMTQTPLSLSVTPGQPASISCKSSQSLLHSNGKTYLNWYLQKPGQSPQLLIYLVSKLESGVPDRFSGSGSGTDFTLKISRVEAEDVGVYYCLQATYFPYTFGQGTKLEIK
notes: also called h8F2
**Q.** Does B5 bind [13]?
**A.** Result: binds

B6: 4B-8F2 (humanized) or 4B-h8F2 (bispecific antibody, human IgG1, kappa)
heavy: not shown
light: DIVMTQTPLSLSVTPGQPASISCKSSQSLLHSNGKTYLNWYLQKPGQSPQLLIYLVSKLESGVPDRFSGSGSGTDFTLKISRVEAEDVGVYYCLQATYFPYTFGQGTKLEIKRTVAAPSVFIFPPSDEQLKSGTASVVCLLNNFYPREAKVQWKVDNALQSGNSQESVTEQDSKDSTYSLSSTLTLSKADYEKHKVYACEVTHQGLSSPVTKSFNRGEC
notes: Humanized ROR1 x 4-1BB BsAb
**Q.** With B6 as the binder, how does the Kd [8] read?
**A.** Its Kd is 237 nM.

**Q.** What about the koff [14] of the same binder?
**A.** Its koff is 0.0592 s⁻¹.

**Q.** And the kon [14]?
**A.** The kon was 250000 M⁻¹ s⁻¹.

**Q.** And the “EC50 (read off the curve)” value [10]?
**A.** The value was about 0.03 nM.

**Q.** What about the “EC50 (read off the curve)” value [11] of the same binder?
**A.** Its value is about 0.01 nM.

B7: parental CLDN6-1 antibody (antibody, V domains shown)
VH: QVQLQESGPGLVKPSETLSLTCTVSGYSITSGYYWNWIRQPPGKGLEWMGYISYSGSNNYNPSLKNRVTISRDTSKNQFSLKLSSVTAADTAVYYCARGGYYFDYWGQGTLVTVSS
VL: DIVMTQSPDSLAVSLGERATINCKSSQSLLNTNNQKNYLAWYQQKPGQPPKLLIYFASTRESGVPDRFSGSGSGTDFTLTISSLQAEDVAVYFCQQHYNAPRTFGGGTKVEIK
**Q.** Which results are given for B7?
**A.** EC50 [15]: 1.2 nM; EC50 [16]: 5.1 nM; EC50 [17]: 0.452 nM
